Positions count from the first letter of the chain named. Names may count otherwise.
B1: D313V (protein)
chain: MQLRNPELHLGCALALRFLALVSWDIPGARALDNGLARTPTMGWLHWERFMCNLDCQEEPDSCISEKLFMEMAELMVSEGWKDAGYEYLCIDDCWMAPQRDSEGRLQADPQRFPHGIRQLANYVHSKGLKLGIYADVGNKTCAGFPGSFGYYDIDAQTFADWGVDLLKFDGCYCDSLENLADGYKHMSLALNRTGRSIVYSCEWPLYMWPFQKPNYTEIRQYCNHWRNFADIDDSWKSIKSILDWTSFNQERIVDVAGPGGWNDPDMLVIGNFGLSWNQQVTQMALWAIMAAPLFMSNDLRHISPQAKALLQVKDVIAINQDPLGKQGYQLRQGDNFEVWERPLSGLAWAVAMINRQEIGGPRSYTIAVASLGKGVACNPACFITQLLPVKRKLGFYEWTSRLRSHINPTGTVLLQLENTMQMSLKDLL
B2: A318P (protein)
chain: B1 chain with V313D, A318P
B3: I317M (protein)
chain: B1 chain with V313D, I317M
B4: K314E (protein)
chain: B1 chain with V313D, K314E
B5: V316L (protein)
chain: B1 chain with V313D, V316L
B6: K314N (protein)
chain: B1 chain with V313D, K314N
B7: D315Y (protein)
chain: B1 chain with V313D, D315Y
B8: D315V (protein)
chain: B1 chain with V313D, D315V
B9: D315N (protein)
chain: B1 chain with V313D, D315N
B10: I317V (protein)
chain: B1 chain with V313D, I317V
B11: K314T (protein)
chain: B1 chain with V313D, K314T
B12: D315H (protein)
chain: B1 chain with V313D, D315H
B13: V316A (protein)
chain: B1 chain with V313D, V316A
B14: A318D (protein)
chain: B1 chain with V313D, A318D
B15: D315G (protein)
chain: B1 chain with V313D, D315G
B16: D315A (protein)
chain: B1 chain with V313D, D315A
B17: K314M (protein)
chain: B1 chain with V313D, K314M
B18: I317L (protein)
chain: B1 chain with V313D, I317L

System: mutant form of α-Gal A expressed in HEK-293 cells
Assay: HEK assay (GLP HEK / Migalastat Amenability Assay): α-Gal A activity in lysates of transiently transfected HEK-293 cells incubated with or without 10 μM migalastat
Format: cell-based, human
Details: for Absolute increase (% WT) / Relative increase: 10 μM migalastat versus baseline; for Baseline α-Gal A activity (% WT): absence of migalastat; for Baseline α-Gal A activity (% WT) / 10 μM migalastat α-Gal A activity (% WT): percentage of baseline wild-type α-Gal A activity; for Baseline α-Gal A activity (% WT) / Baseline α-Gal A activity / 10 μM migalastat α-Gal A activity / 10 μM migalastat α-Gal A activity (% WT): mean ± SEM; for Baseline α-Gal A activity / 10 μM migalastat α-Gal A activity: lysates of HEK-293 cells transiently transfected with the mutant form; for Baseline α-Gal A activity: incubated 5 days in absence of migalastat; for 10 μM migalastat α-Gal A activity: incubated 5 days with 10 μM migalastat; for 10 μM migalastat α-Gal A activity (% WT): with 10 μM migalastat, 5 days
In short: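 Activity reported as 4-MU released (nmol/mg/hr), mean±SEM, from lysates of transiently transfected HEK-293 cells expressing mutant α-Gal A, cultured with or without 10 μM migalastat.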

Molecule	Absolute increase (% WT)	Relative increase	Baseline α-Gal A activity (% WT)	Baseline α-Gal A activity	10 μM migalastat α-Gal A activity	10 μM migalastat α-Gal A activity (% WT)
B1	6.7 % WT	3.9	2.9 ± 0.2 % WT	894 ± 33 nmol/mg/h	3480 ± 580 nmol/mg/h	9.6 ± 0.9 % WT
B2	6.5 % WT	5.3	1.5 ± 0.2 % WT	526 ± 42 nmol/mg/h	2799 ± 174 nmol/mg/h	8 ± 0.8 % WT
B3	10.2 % WT	11.7	1 ± 0.1 % WT	340 ± 29 nmol/mg/h	3988 ± 177 nmol/mg/h	11.2 ± 0.8 % WT
B4	11.0 % WT	1.3	37.7 ± 2.5 % WT	13026 ± 1767 nmol/mg/h	16765 ± 2098 nmol/mg/h	48.7 ± 2.8 % WT
B5	33.9 % WT	1.7	47.4 ± 3.9 % WT	12854 ± 958 nmol/mg/h	21812 ± 1450 nmol/mg/h	81.3 ± 6.3 % WT
B6	10.8 % WT	1.2	39.1 ± 3.4 % WT	14205 ± 2418 nmol/mg/h	17364 ± 2225 nmol/mg/h	49.9 ± 2.6 % WT
B7	14.2 % WT	1.4	34.5 ± 3.5 % WT	9198 ± 1179 nmol/mg/h	12674 ± 1008 nmol/mg/h	48.7 ± 2.4 % WT
B8	24.8 % WT	1.8	31.2 ± 3.6 % WT	8191 ± 717 nmol/mg/h	14580 ± 1235 nmol/mg/h	56 ± 6 % WT
B9	17.9 % WT	1.5	34.1 ± 1.7 % WT	8553 ± 425 nmol/mg/h	13037 ± 869 nmol/mg/h	52.1 ± 3.7 % WT
B10	18.6 % WT	1.3	55 ± 6.1 % WT	14885 ± 1495 nmol/mg/h	19927 ± 1565 nmol/mg/h	73.6 ± 5.5 % WT
B11	17.9 % WT	1.2	75.9 ± 4.4 % WT	25162 ± 2701 nmol/mg/h	30501 ± 2332 nmol/mg/h	93.8 ± 4.5 % WT
B12	17.4 % WT	1.4	35.7 ± 2.8 % WT	9791 ± 1077 nmol/mg/h	14136 ± 1573 nmol/mg/h	53.2 ± 5.5 % WT
B13	22.7 % WT	1.4	48.8 ± 4.1 % WT	13166 ± 1029 nmol/mg/h	18908 ± 1577 nmol/mg/h	71.5 ± 7.1 % WT
B14	16.9 % WT	1.4	42.5 ± 3.6 % WT	15357 ± 1499 nmol/mg/h	20838 ± 1817 nmol/mg/h	59.4 ± 5.3 % WT
B15	23.6 % WT	1.4	49.7 ± 3.7 % WT	13326 ± 859 nmol/mg/h	19115 ± 1697 nmol/mg/h	73.3 ± 8 % WT
B16	25.1 % WT	1.3	68.3 ± 4.8 % WT	18519 ± 1370 nmol/mg/h	24758 ± 1512 nmol/mg/h	93.4 ± 7 % WT
B17	15.9 % WT	1.3	50.9 ± 3.8 % WT	18231 ± 2878 nmol/mg/h	23043 ± 2838 nmol/mg/h	66.8 ± 3.8 % WT
B18	16.5 % WT	1.3	54.4 ± 4.9 % WT	14780 ± 1222 nmol/mg/h	18770 ± 1141 nmol/mg/h	70.9 ± 5.6 % WT

— patent US11833164B2, “Methods of treating Fabry disease in patients having a mutation in the GLA gene” (Amicus Therapeutics, Inc., priority 2019, dated 2023)
